Measurements: patent US20050282181A1 (published 2005)

Target: T1, biotinylated soluble human IL-1RI ectodomain (human, UniProt P14778 18-336, biotinylated with EZ-Link Sulfo-NHS-SS-Biotin, approaching 2 mol biotin/mol receptor)
T1 construct: extracellular domain; also called biotinylated IL-1RI; biotinylated human IL-1RI
T1 sequence (looked up): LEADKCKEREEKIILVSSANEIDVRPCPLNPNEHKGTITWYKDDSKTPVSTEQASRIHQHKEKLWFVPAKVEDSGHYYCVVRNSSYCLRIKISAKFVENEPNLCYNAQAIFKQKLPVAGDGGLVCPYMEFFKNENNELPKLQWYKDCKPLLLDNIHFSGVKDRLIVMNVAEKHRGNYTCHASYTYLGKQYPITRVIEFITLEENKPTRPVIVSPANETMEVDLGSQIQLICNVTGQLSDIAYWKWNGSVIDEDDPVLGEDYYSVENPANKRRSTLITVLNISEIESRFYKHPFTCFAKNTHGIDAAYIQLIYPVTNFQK
Assay: SPR, IL-1α binding to biotinylated receptor

Kd: 1 nM
B1: human IL-1α (ligand, UniProt P01583 113-271, looked up)
chain: SAPFSFLSNVKYNFMRIIKYEFILNDALNQSIIRANDQYLTAAALHNLDEAVKFDMGAYKSSKDDAKITVILRISKTQLYVTAQDEDQPVLLKEMPEIPKTITGSETNLLFFWETHGTKNYFTSVAHPNLFIATKQDYWVCLAGGPPSITDFQILENQA
